T1: B7-H4 expressed on the human breast cancer cell line SkBr3 and on the B7-H4 expressing cell line MX-1 (human (SkBr3 is called a human breast …, UniProt Q7Z7D3 25-282))
T1 construct: whole, on cells; also called VTCN1; B7x
T1 sequence (looked up): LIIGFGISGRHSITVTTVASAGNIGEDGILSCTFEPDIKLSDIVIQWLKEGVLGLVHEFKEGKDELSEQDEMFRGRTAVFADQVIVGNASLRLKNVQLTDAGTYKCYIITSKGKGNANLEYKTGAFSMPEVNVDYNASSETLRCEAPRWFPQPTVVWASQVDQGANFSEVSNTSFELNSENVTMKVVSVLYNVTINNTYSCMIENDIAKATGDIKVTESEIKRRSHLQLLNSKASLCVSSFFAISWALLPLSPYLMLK


Target: T1, B7-H4 expressed on the human breast …
Test: staining of SkBr3 cells, antibody at 10 ug/ml (FIG. 1)

Row | binding result | Binder
1 | binds | anti-B7-H4 antibody 801 (antibody, V domains shown) VH: EVQLVESGGGLVQPGGSLRLSCAASGFTFNSYAMHWVRQAPGKGLEWVSAISGNGGSTRYADSVKGRFTISRDNSKNTLYLQMNSLRAEDTAVYYCARDRFRKVHGFDVWGQGTLVTVSS VL: DIQMTQSPSSLSASVGDRVTITCQASQDISNYLNWYQQKPGKAPKLLIYDASNLETGVPSRFSGSGSGTDFTFTISSLQPEDIATYYCQQDATFPLTFGQGTKVEIK
2 | binds | anti-B7-H4 antibody 817 (antibody, V domains shown) VH: EVQLVESGGGLVQPGGSLRLSCAASGFTFSSYAMHWVRQAPGKGLEWVSAISGSGGSTRYADSVKGRFTISRDNSKNTLYLQMNSLRAEDTAVYYCARGRWSKWGFDVWGQGTLVTVSS VL: not shown

From US11672873 (NANTBIO, dated 2023)
